Experimental findings from paper PMC3426546 are described below.

The experiment deals with ECTV-IL18BP expressed and secreted from mammalian cells, biotinylated (ectromelia virus). Description: SPR. On the technique in general: Surface plasmon resonance follows binding to a sensor surface in real time, without labels.

In the case of IL18 D110A (ligand), the equilibrium dissociation constant (Kd) (as a rule, the free concentration of one partner at which half of the binding sites on the other are occupied at equilibrium, for simple one-to-one binding) was 0.2 nM; the koff (commonly a measure of how fast the partners let go of each other) is 3e-05 s⁻¹; the on-rate (kon) (in general, a measure of how fast the partners come together) came to 260000 M⁻¹ s⁻¹.
